B1: DED-TlpA-CC (TlpA coiled-coil domain with Asp-Glu-Asp appended to the N-terminus) (protein)
chain: DEDMRPATYEPEQIIEAGLALQAEGRNITGFALRNQVGGGNPTRLRQIWDEYQASQSTVVTEPVAELPVEVAEEVKAVSAALSERITQLATELNDKAVRAAERRVAEVTRAAGEQTAQAERELADAAQTVDDLEEKLDELQDRYDSLTLALESERSLRQQHDVEMAQLKERLAAAEENTRQREERYQEQKTVLQDALNAEQAQHKNTREDLQKRLEQISAEANARTEELKSERDKVNTLLTRLESQENALASERQQHLATRETLQQRLEQAIADTQARAGEIALERDRVSSLTARLESQEKASSEQLVRMGSEIASLTERCTQLENQRDDARLETMGEKETVAALRGEAEALKRQNQSLMAALSGNKQTGGQNA
In turn, B1 came in with a Hill coefficient (fit of CD melting curve at 222 nm, 25-50 C) of 24.7.

B2: TlpA-CC WT (TlpA coiled-coil domain, wild type) (protein)
chain: MRPATYEPEQIIEAGLALQAEGRNITGFALRNQVGGGNPTRLRQIWDEYQASQSTVVTEPVAELPVEVAEEVKAVSAALSERITQLATELNDKAVRAAERRVAEVTRAAGEQTAQAERELADAAQTVDDLEEKLDELQDRYDSLTLALESERSLRQQHDVEMAQLKERLAAAEENTRQREERYQEQKTVLQDALNAEQAQHKNTREDLQKRLEQISAEANARTEELKSERDKVNTLLTRLESQENALASERQQHLATRETLQQRLEQAIADTQARAGEIALERDRVSSLTARLESQEKASSEQLVRMGSEIASLTERCTQLENQRDDARLETMGEKETVAALRGEAEALKRQNQSLMAALSGNKQTGGQNA
The protein B2 came in with a Hill coefficient (fit of CD melting curve at 222 nm, 25-50 C) of 19.1.

B3: TlpA-CC-DED (TlpA coiled-coil domain with Asp-Glu-Asp appended to the C-terminus) (protein)
chain: MRPATYEPEQIIEAGLALQAEGRNITGFALRNQVGGGNPTRLRQIWDEYQASQSTVVTEPVAELPVEVAEEVKAVSAALSERITQLATELNDKAVRAAERRVAEVTRAAGEQTAQAERELADAAQTVDDLEEKLDELQDRYDSLTLALESERSLRQQHDVEMAQLKERLAAAEENTRQREERYQEQKTVLQDALNAEQAQHKNTREDLQKRLEQISAEANARTEELKSERDKVNTLLTRLESQENALASERQQHLATRETLQQRLEQAIADTQARAGEIALERDRVSSLTARLESQEKASSEQLVRMGSEIASLTERCTQLENQRDDARLETMGEKETVAALRGEAEALKRQNQSLMAALSGNKQTGGQNADED
Turning to B3, the Hill coefficient (fit of CD melting curve at 222 nm, 25-50 C) turned out to be 16.7.

The values are drawn from patent US20170298425.
